Columns and labels:
[1] = biological target: T1, Cre recombinase monomer with Q311R mutation
T1 chain: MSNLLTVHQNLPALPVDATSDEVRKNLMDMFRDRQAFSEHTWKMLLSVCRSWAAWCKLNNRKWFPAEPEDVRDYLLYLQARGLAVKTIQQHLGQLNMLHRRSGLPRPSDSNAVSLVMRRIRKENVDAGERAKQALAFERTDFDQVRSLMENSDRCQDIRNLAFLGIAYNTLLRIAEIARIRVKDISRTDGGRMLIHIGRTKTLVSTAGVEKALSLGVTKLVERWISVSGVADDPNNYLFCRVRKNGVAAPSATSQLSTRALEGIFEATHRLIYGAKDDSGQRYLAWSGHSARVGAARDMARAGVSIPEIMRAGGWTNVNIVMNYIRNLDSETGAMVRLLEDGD

[2] = biological target: T2, Cre recombinase monomer with Y324A mutation
T2 chain: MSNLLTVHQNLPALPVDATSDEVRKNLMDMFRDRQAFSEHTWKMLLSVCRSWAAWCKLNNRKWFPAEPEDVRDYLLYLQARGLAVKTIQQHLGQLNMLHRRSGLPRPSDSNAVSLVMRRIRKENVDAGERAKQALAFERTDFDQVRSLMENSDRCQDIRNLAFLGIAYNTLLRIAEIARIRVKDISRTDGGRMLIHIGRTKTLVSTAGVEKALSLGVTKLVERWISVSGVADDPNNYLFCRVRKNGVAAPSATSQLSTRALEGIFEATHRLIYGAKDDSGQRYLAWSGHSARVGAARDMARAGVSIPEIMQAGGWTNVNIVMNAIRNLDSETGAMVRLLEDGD

[3] = biological target: T3, Cre recombinase monomer with Y324K mutation
T3 chain: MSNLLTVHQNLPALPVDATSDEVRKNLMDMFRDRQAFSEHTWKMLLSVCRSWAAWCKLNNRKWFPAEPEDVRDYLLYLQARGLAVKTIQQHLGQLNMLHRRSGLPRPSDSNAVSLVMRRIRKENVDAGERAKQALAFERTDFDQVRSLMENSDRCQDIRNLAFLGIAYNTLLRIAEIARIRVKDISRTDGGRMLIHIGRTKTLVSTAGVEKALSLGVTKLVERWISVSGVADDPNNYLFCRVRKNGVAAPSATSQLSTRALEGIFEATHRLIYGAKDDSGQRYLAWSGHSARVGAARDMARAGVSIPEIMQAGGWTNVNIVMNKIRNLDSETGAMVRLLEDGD

[4] = biological target: T4, Cre recombinase monomer with W315L mutation
T4 chain: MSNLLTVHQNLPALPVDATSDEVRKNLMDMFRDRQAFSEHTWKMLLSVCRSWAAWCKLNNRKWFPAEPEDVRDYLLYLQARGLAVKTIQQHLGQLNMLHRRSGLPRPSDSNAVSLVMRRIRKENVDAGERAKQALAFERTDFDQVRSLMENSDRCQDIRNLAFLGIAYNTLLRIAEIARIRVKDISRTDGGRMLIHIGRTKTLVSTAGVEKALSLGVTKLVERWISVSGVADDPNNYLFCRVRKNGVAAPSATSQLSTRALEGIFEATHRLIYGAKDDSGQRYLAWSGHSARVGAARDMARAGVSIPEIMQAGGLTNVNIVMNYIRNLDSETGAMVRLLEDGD

[5] = biological target: T5, Cre recombinase monomer with E176H mutation
T5 chain: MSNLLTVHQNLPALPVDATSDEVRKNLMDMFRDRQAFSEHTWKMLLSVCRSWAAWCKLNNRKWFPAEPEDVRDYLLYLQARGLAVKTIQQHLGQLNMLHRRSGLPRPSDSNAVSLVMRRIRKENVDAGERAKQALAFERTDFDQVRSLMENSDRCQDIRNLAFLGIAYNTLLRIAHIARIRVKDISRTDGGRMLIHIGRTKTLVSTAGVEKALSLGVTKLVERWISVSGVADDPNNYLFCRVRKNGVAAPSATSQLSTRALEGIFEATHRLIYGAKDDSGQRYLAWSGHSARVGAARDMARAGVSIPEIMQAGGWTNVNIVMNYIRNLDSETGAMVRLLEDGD

[6] = biological target: T6, Cre recombinase monomer with E176Y mutation
T6 chain: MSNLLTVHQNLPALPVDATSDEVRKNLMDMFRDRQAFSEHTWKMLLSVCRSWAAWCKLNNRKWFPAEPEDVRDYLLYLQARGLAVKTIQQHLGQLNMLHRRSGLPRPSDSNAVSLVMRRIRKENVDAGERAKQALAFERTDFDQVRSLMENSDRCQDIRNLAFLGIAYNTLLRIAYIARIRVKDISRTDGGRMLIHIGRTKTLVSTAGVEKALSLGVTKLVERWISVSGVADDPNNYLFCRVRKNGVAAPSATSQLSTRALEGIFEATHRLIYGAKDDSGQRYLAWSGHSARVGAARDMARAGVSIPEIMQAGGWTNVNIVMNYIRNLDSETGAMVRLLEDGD

[7] = biological target: T7, Cre recombinase monomer with E176M mutation
T7 chain: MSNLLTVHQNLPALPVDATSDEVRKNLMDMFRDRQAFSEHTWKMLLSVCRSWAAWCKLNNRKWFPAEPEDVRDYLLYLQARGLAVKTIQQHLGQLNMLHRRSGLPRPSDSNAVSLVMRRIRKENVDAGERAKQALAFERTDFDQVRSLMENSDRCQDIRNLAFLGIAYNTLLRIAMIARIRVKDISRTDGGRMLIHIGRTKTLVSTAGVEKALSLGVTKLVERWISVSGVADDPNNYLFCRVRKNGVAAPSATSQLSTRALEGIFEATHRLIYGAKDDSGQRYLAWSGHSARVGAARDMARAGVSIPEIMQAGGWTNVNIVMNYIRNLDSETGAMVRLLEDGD

[8] = biological target: T8, Cre recombinase monomer with E176V mutation
T8 chain: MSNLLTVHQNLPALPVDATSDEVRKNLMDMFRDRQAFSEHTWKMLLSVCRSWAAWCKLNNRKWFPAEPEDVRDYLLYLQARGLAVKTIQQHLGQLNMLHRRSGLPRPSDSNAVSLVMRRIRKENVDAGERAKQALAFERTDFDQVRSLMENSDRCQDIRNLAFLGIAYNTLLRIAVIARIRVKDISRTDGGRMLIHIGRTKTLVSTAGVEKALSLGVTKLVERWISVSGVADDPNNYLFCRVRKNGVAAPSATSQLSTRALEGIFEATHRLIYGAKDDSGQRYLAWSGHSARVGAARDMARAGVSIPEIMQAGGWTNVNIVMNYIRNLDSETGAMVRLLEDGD

[9] = biological target: T9, Cre recombinase monomer with E176I mutation
T9 chain: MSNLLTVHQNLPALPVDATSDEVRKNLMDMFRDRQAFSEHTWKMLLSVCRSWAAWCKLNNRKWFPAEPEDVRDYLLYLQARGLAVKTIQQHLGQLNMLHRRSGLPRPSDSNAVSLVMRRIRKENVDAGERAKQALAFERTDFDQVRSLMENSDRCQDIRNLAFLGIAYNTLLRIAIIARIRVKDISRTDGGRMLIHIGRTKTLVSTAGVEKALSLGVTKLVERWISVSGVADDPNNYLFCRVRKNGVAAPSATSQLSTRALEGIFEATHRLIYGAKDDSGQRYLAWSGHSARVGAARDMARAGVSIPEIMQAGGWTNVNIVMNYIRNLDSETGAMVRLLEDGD

Protein	Median dimer activity (recombination on loxP) [1]	Median dimer activity (recombination on loxP) [5]	Median dimer activity (recombination on loxP) [6]	Median dimer activity (recombination on loxP) [8]	other results
Cre recombinase monomer with K201N mutation (protein) MSNLLTVHQNLPALPVDATSDEVRKNLMDMFRDRQAFSEHTWKMLLSVCRSWAAWCKLNNRKWFPAEPEDVRDYLLYLQARGLAVKTIQQHLGQLNMLHRRSGLPRPSDSNAVSLVMRRIRKENVDAGERAKQALAFERTDFDQVRSLMENSDRCQDIRNLAFLGIAYNTLLRIAEIARIRVKDISRTDGGRMLIHIGRTNTLVSTAGVEKALSLGVTKLVERWISVSGVADDPNNYLFCRVRKNGVAAPSATSQLSTRALEGIFEATHRLIYGAKDDSGQRYLAWSGHSARVGAARDMARAGVSIPEIMQAGGWTNVNIVMNYIRNLDSETGAMVRLLEDGD	95%	–	–	–	Median dimer activity (recombination on loxP) [2]: 26%
Cre recombinase monomer with R292T mutation (protein) MSNLLTVHQNLPALPVDATSDEVRKNLMDMFRDRQAFSEHTWKMLLSVCRSWAAWCKLNNRKWFPAEPEDVRDYLLYLQARGLAVKTIQQHLGQLNMLHRRSGLPRPSDSNAVSLVMRRIRKENVDAGERAKQALAFERTDFDQVRSLMENSDRCQDIRNLAFLGIAYNTLLRIAEIARIRVKDISRTDGGRMLIHIGRTKTLVSTAGVEKALSLGVTKLVERWISVSGVADDPNNYLFCRVRKNGVAAPSATSQLSTRALEGIFEATHRLIYGAKDDSGQRYLAWSGHSATVGAARDMARAGVSIPEIMQAGGWTNVNIVMNYIRNLDSETGAMVRLLEDGD	94%	–	–	–	Median dimer activity (recombination on loxP) [3]: 55%
Cre recombinase monomer with H289E mutation (protein) MSNLLTVHQNLPALPVDATSDEVRKNLMDMFRDRQAFSEHTWKMLLSVCRSWAAWCKLNNRKWFPAEPEDVRDYLLYLQARGLAVKTIQQHLGQLNMLHRRSGLPRPSDSNAVSLVMRRIRKENVDAGERAKQALAFERTDFDQVRSLMENSDRCQDIRNLAFLGIAYNTLLRIAEIARIRVKDISRTDGGRMLIHIGRTKTLVSTAGVEKALSLGVTKLVERWISVSGVADDPNNYLFCRVRKNGVAAPSATSQLSTRALEGIFEATHRLIYGAKDDSGQRYLAWSGESARVGAARDMARAGVSIPEIMQAGGWTNVNIVMNYIRNLDSETGAMVRLLEDGD	94%	–	–	–	Median dimer activity (recombination on loxP) [4]: 33%
Cre recombinase monomer with R173W mutation (protein) MSNLLTVHQNLPALPVDATSDEVRKNLMDMFRDRQAFSEHTWKMLLSVCRSWAAWCKLNNRKWFPAEPEDVRDYLLYLQARGLAVKTIQQHLGQLNMLHRRSGLPRPSDSNAVSLVMRRIRKENVDAGERAKQALAFERTDFDQVRSLMENSDRCQDIRNLAFLGIAYNTLLWIAEIARIRVKDISRTDGGRMLIHIGRTKTLVSTAGVEKALSLGVTKLVERWISVSGVADDPNNYLFCRVRKNGVAAPSATSQLSTRALEGIFEATHRLIYGAKDDSGQRYLAWSGHSARVGAARDMARAGVSIPEIMQAGGWTNVNIVMNYIRNLDSETGAMVRLLEDGD	95%	57%	30%	–	–
Cre recombinase monomer with R173M mutation (protein) MSNLLTVHQNLPALPVDATSDEVRKNLMDMFRDRQAFSEHTWKMLLSVCRSWAAWCKLNNRKWFPAEPEDVRDYLLYLQARGLAVKTIQQHLGQLNMLHRRSGLPRPSDSNAVSLVMRRIRKENVDAGERAKQALAFERTDFDQVRSLMENSDRCQDIRNLAFLGIAYNTLLMIAEIARIRVKDISRTDGGRMLIHIGRTKTLVSTAGVEKALSLGVTKLVERWISVSGVADDPNNYLFCRVRKNGVAAPSATSQLSTRALEGIFEATHRLIYGAKDDSGQRYLAWSGHSARVGAARDMARAGVSIPEIMQAGGWTNVNIVMNYIRNLDSETGAMVRLLEDGD	96%	75%	27%	75%	Median dimer activity (recombination on loxP) [7]: 39%
Cre recombinase monomer with R173I mutation (protein) MSNLLTVHQNLPALPVDATSDEVRKNLMDMFRDRQAFSEHTWKMLLSVCRSWAAWCKLNNRKWFPAEPEDVRDYLLYLQARGLAVKTIQQHLGQLNMLHRRSGLPRPSDSNAVSLVMRRIRKENVDAGERAKQALAFERTDFDQVRSLMENSDRCQDIRNLAFLGIAYNTLLIIAEIARIRVKDISRTDGGRMLIHIGRTKTLVSTAGVEKALSLGVTKLVERWISVSGVADDPNNYLFCRVRKNGVAAPSATSQLSTRALEGIFEATHRLIYGAKDDSGQRYLAWSGHSARVGAARDMARAGVSIPEIMQAGGWTNVNIVMNYIRNLDSETGAMVRLLEDGD	93%	42%	–	44%	Median dimer activity (recombination on loxP) [9]: 40%
